Measurements from US8247194 (Amgen, dated 2012).
Each block holds one binder with its values, some of them ahead of it.

How the values were obtained:
[1] = molecular target: T1, recombinant human GM-CSF (rhGM-CSF), produced in E. coli (human, UniProt P04141 18-144); test: cell-based or functional assay
[2] = molecular target: T1, recombinant human GM-CSF (rhGM-CSF), …; test: SPR, rhGM-CSF coated chip, 1:1 Langmuir fit, analyte 116 nM
[3] = molecular target: T1, recombinant human GM-CSF (rhGM-CSF), …; test: SPR, rhGM-CSF coated chip, 1:1 Langmuir fit, analyte 3120 nM; analyte concentration 3120 nM
[4] = molecular target: T1, recombinant human GM-CSF (rhGM-CSF), …; test: SPR, rhGM-CSF coated chip, 1:1 Langmuir fit, analyte 1040 nM
[5] = molecular target: T1, recombinant human GM-CSF (rhGM-CSF), …; test: SPR, rhGM-CSF coated chip, 1:1 Langmuir fit, analyte 347 nM
[6] = molecular target: T1, recombinant human GM-CSF (rhGM-CSF), …; test: SPR, rhGM-CSF coated chip, 1:1 Langmuir fit, analyte 38.5 nM
[7] = molecular target: T1, recombinant human GM-CSF (rhGM-CSF), …; test: SPR, purified SCA over rhGM-CSF coated chip, 1:1 Langmuir fit
Experimental: FIG. 36A, B: Kinetic binding analysis of SCA leads derived from the method of the invention, as determined by SPR. Binding kinetics (kd and ka) of the SCA leads were measured injecting 10 μL of purified protein in dilution series ranging from 10 μg/mL to 1 pg/mL purified SCA onto a rhGM-CSF coated sensor chip surface. The dissociation was monitored at 25° C. for 100 sec. Data were fitted using BIAevalution™ software determining the rate constant for dissociation (FIG. 36B) and association (FIG. 36A) kinetics. The residuals corresponding to the fitted data monitoring the deviation from the raw data indicated no systematic deviation for the fit.

[8] = molecular target: T1, recombinant human GM-CSF (rhGM-CSF), …; test: SPR, rhGM-CSF coated chip, 1:1 Langmuir fit, analyte 12.8 nM
[9] = molecular target: T1, recombinant human GM-CSF (rhGM-CSF), …; test: SPR, rhGM-CSF coated chip, 1:1 Langmuir fit, analyte 3120 nM
[10] = molecular target: T1, recombinant human GM-CSF (rhGM-CSF), …; test: cell-based or functional assay; remark: listed apart in the source

T1 sequence (P04141 18-144 limits assumed): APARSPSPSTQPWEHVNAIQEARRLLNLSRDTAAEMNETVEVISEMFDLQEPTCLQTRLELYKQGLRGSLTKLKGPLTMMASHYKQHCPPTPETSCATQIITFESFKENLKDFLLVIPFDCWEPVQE

IC50 (read off the curve), TF-1 proliferation, C33ON-33 dimer [1]: ~0.2 mg/L | IC50 (read off the curve), TF-1 proliferation, C33ON-33 mono [1]: ~0.2 mg/L
B1: half-human SCA C33oN-33 (scFv)
scFv: ELQLVEQSGAALVKPGDSVKMSCKASGYPFTDYIVHWVKQSHGKSLDWIGYINPYSGDTKFNEKFKSKATLTVDKSSSTAYMEFSRLTSEDSAIYYCARSGLIAVYFDYWGQGTTVTVSSGGGGSGGGGSGGGGSELVLTQSPDFQSVTPKEKVTITCRASQSIGSSLHWYQQKPDQSPKLLIKFASQSLSGVPSRFSGSGSGTDFTLTINSLEAEDAATYYCQQSYSTPSTFGPGTKVEIKTGDYKDDDDKHHHHHH

Ka [2]: 1.66e+08 M⁻¹ | Kd [2]: 6.01 nM | koff [2]: 0.00464 s⁻¹ | kon [2]: 772000 M⁻¹ s⁻¹ | Kd [3]: 94.6 nM | Ka [4]: 1.89e+07 M⁻¹ | Kd [4]: 52.8 nM | koff [4]: 0.0046 s⁻¹ | kon [4]: 87100 M⁻¹ s⁻¹ | Ka [5]: 9.22e+07 M⁻¹ | Kd [5]: 10.8 nM | koff [5]: 0.00477 s⁻¹ | kon [5]: 440000 M⁻¹ s⁻¹ | Ka [6]: 2.2e+08 M⁻¹ | Kd [6]: 4.55 nM | koff [6]: 0.00444 s⁻¹ | kon [6]: 975000 M⁻¹ s⁻¹ | Kd [7]: 50 nM | Ka [8]: 3.25e+08 M⁻¹ | Kd [8]: 3.07 nM | koff [8]: 0.00384 s⁻¹ | kon [8]: 1.25e+06 M⁻¹ s⁻¹ | Ka [9]: 1.06e+07 M⁻¹ | koff [9]: 0.00514 s⁻¹ | kon [9]: 54300 M⁻¹ s⁻¹ | half maximal inhibition constant (IC50), rhGM-CSF dependent proliferation of TF-1 cells [10]: 6 nM
B2: half-human SCA B32oN-45 (scFv)
scFv: ELQLVEQSGAALVKPGDSVKMSCKASGYPFTDYIVHWVKQSHGKSLDWIGYINPYSGDTKFNEKFKSKATLTVDKSSSTAYMEFSRLTSEDSAIYYCARSGLIAVYFDYWGQGTTVTVSSGGGGSGGGGSGGGGSELVMTQSPSSVSASVGDRVTIACRASQNIRNILNWYQQRPGKAPQLLIYAASNLQSGVPSRFSGSGSGTDFTLTINSLQPEDFATYYCQQSYSMPRTFGGGTKVEIKTGDYKDDDDKHHHHHH
notes: Expressed from pComb3H5BFlag/His, which adds the Flag-tag between the SCA and the His6-tag; As a lead it was purified by IMAC and gel filtration; also called maternal SCA B32oN-45
